Experimental data: paper doi:10.1101/2021.02.18.431627 (bioRxiv, 2021)

What was measured:
[1] = biological target: GlyR-α3L-eGFP (glycine receptor α3, long splice variant L, N-terminally tagged with eGFP) (mouse) (UniProt Q91XP5); assay: molecular brightness by raster image correlation spectroscopy
[2] = biological target: GlyR-α3L-eGFP (glycine receptor α3, long splice variant L, N-terminally tagged with eGFP) (mouse) (UniProt Q91XP5); assay: subunit counting by stepwise photobleaching
[3] = biological target: the molecule itself; assay: subunit counting by stepwise photobleaching
[4] = biological target: the molecule itself; assay: molecular brightness by raster image correlation spectroscopy

N (α3L-eGFP subunits per heteropentamer, in a few cells) [1]	N (α3L-eGFP subunits per heteropentamer) [2]	heteropentameric fraction (fit with a 2nd order binomial) [2] [%]	heteropentameric fraction (fit with a 3rd order binomial) [2] [%]	heteropentameric fraction (fit with a 4th order binomial) [2] [%]	Molecule	stoichiometry N [3]	stoichiometry N [4]
1	2 to 4	23	36	67	GlyR-α3K-mCherry (glycine receptor α3, short splice variant K, N-terminally tagged with mCherry)		
					GlyR-α3L-eGFP (glycine receptor α3, long splice variant L, N-terminally tagged with eGFP) (receptor, mouse, UniProt Q91XP5 34-464, looked up) ARSRSAPMSPSDFLDKLMGRTSGYDARIRPNFKGPPVNVTCNIFINSFGSIAETTMDYRVNIFLRQKWNDPRLAYSEYPDDSLDLDPSMLDSIWKPDLFFANEKGANFHEVTTDNKLLRIFKNGNVLYSIRLTLTLSCPMDLKNFPMDVQTCIMQLESFGYTMNDLIFEWQDEAPVQVAEGLTLPQFLLKEEKDLRYCTKHYNTGKFTCIEVRFHLERQMGYYLIQMYIPSLLIVILSWVSFWINMDAAPARVALGITTVLTMTTQSSGSRASLPKVSYVKAIDIWMAVCLLFVFSALLEYAAVNFVSRQHKELLRFRRKRKNKTEAFALEKFYRFSDTDDEVRESRFSFTAYGMGPCLQAKDGVVPKGPNHAVQVMPKSPDEMRKVFIDRAKKIDTISRACFPLAFLIFNIFYWVIYKILRHEDIHQQQD	5	~5
